Where a chain is given by its changes, count along the chain named.

Assay [1] has as its target D614 SARS-CoV-2 spike (SARS-CoV-2, UniProt P0DTC2 14-1208).
Assay [2] concerns the target soluble G614 HexaPro spike ectodomain (SARS-CoV-2, UniProt P0DTC2 14-1208).

B1: AB-1 full-length IgG1 (antibody, V domains shown)
VH: QMQLVQSGTEVKKPGESLKISCKGSGYGFITVWIGWVRQMPGKGLEWMGIIYPGDSETRYSPSFQGQVTISADKSINTAYLQWSSLKASDTAIYYCAGGSGISTPMDVWGQGTTVTVSS
VL: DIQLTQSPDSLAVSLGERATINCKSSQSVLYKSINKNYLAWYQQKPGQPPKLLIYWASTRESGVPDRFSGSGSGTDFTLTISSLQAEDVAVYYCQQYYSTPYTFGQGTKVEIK
By Kd is commonly meant the free concentration of one partner at which half of the binding sites on the other are occupied at equilibrium, for simple one-to-one binding. A low value points to higher affinity. In the case of B1, the dissociation constant (Kd) in assay [1] stood at 1.66 nM; in assay [2] it was 3.39 nM.

B2: AB-2 full-length IgG1 (antibody, V domains shown)
VH: B1 VH with Y27S, F29T
VL: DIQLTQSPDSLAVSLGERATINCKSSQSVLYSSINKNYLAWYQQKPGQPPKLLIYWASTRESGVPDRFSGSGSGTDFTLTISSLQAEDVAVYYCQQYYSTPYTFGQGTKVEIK
Regarding B2, the Kd in assay [1] is 1.48 nM; in assay [2] it was 2.79 nM.

B3: AB-3 full-length IgG1 (antibody, V domains shown)
VH: B1 VH with Y27S
VL: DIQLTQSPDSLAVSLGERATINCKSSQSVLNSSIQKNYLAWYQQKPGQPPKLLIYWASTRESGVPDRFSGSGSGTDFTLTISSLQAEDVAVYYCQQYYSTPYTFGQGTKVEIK
With B3, the equilibrium dissociation constant (Kd) in assay [1] turned out to be 0.907 nM; in assay [2], 1.74 nM.

B4: AB-4 full-length IgG1 (antibody, V domains shown)
VH: B1 VH with Y27S, V32Y, S103H
VL: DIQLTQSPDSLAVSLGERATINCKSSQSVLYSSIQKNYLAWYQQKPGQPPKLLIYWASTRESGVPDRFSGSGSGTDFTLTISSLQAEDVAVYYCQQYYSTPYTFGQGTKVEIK
For the molecule B4, the Kd in assay [1] was determined as 1.72 nM; in assay [2], 2.71 nM.

The values are drawn from patent publication US20230295275A1 (FLAGSHIP PIONEERING INNOVATIONS VI, published 2023).
